Reference: publication doi:10.1101/2021.12.31.474340

Molecular target: guanylyl cyclase-A (GC-A), human, stably expressed in QBIHEK293A cells (human) (UniProt P16066)
Assay: radioligand binding

UniProt P16066, sequence (P16066 33-473): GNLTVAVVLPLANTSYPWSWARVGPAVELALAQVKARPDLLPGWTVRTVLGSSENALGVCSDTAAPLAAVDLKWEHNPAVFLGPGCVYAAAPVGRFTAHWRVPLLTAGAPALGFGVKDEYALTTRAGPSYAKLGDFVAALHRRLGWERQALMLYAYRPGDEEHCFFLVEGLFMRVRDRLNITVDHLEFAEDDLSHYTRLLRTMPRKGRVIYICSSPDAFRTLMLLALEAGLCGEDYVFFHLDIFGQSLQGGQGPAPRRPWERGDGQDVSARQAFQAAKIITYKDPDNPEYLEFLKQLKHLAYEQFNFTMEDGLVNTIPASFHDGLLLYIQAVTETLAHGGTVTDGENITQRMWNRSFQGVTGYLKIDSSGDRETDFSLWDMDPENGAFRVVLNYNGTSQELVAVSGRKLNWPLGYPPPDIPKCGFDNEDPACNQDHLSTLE

- increase of binding with increasing concentrations of compound #20: 71%
- increase of overall binding with 10 uM compound #20 against control: 60%
Substance: ^125I-ANP (peptide)
